# According to US20200399391A1 (Sanofi, published 2020):
# B1: mAb 3 (antibody, human IgG1, kappa)
# heavy: QVQLVQSGAEVAKPGTSVKLSCKASGYTFTDYWMQWVKQRPGQGLEWIGTIYPGDGDTGYAQKFQGKATLTADKSSKTVYMHLSSLASEDSAVYYCARGDYYGSNSLDYWGQGTSVTVSSASTKGPSVFPLAPSSKSTSGGTAALGCLVKDYFPEPVTVSWNSGALTSGVHTFPAVLQSSGLYSLSSVVTVPSSSLGTQTYICNVNHKPSNTKVDKKVEPKSCDKTHTCPPCPAPELLAGPDVFLFPPKPKDTLMISRTPEVTCVVVDVSHEDPEVKFNWYVDGVEVHNAKTKPREEQYNSTYRVVSVLTVLHQDWLNGKEYKCKVSNKALPAPEEKTISKAKGQPREPQVYTLPPSRDELTKNQVSLTCLVKGFYPSDIAVEWESNGQPENNYKTTPPVLDSDGSFFLYSKLTVDKSRWQQGNVFSCSVMHEALHNHYTQKSLSLSPG
# light: DIVMTQSHLSMSTSLGDPVSITCKASQDVSTVVAWYQQKPGQSPRRLIYSASYRYIGVPDRFTGSGAGTDFTFTISSVQAEDLAVYYCQQHYSPPYTFGGGTKLEIKRTVAAPSVFIFPPSDEQLKSGTASVVCLLNNFYPREAKVQWKVDNALQSGNSQESVTEQDSKDSTYSLSSTLTLSKADYEKHKVYACEVTHQGLSSPVTKSFNRGEC
# notes: also called HEAVY CHAIN 3 / LIGHT CHAIN 1
# Tests used:
# [1] = biological target: T1, FcγRIIIa (CD16a) extracellular domain with V158, C-terminal histag (human, UniProt P08637 17-208); experiment: SPR, against mAb 1
# T1 construct: also called FcγRIIIa 158V; FcγRIIIa-histag; not shown: C-terminal histag
# T1 sequence (P08637 17-208 F176V): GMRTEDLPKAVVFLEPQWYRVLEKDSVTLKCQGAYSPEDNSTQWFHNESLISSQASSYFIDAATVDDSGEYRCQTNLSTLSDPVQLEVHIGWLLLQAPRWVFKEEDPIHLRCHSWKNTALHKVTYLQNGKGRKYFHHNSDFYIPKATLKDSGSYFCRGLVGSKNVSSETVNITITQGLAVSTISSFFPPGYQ
# [2] = biological target: T1, FcγRIIIa (CD16a) extracellular domain …; experiment: SPR, another experiment
# [3] = biological target: T2, FcγRIIIa 158V expressed on cells (human, UniProt P08637 17-254); experiment: cell-based or functional assay
# T2 sequence (P08637 17-254 F176V limits assumed): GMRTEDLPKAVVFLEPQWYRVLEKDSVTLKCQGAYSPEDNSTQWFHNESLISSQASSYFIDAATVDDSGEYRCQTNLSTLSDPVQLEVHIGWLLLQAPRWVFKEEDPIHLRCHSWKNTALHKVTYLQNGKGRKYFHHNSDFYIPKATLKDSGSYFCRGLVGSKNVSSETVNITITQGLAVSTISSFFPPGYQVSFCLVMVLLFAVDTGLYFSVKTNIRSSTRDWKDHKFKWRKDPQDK
# [4] = biological target: T2, FcγRIIIa 158V expressed on cells; experiment: cell-based or functional assay; remark: listed apart in the source
# [5] = biological target: T2, FcγRIIIa 158V expressed on cells; experiment: cell-based or functional assay; remark: listed apart in the source
# [6] = biological target: T3, FcγRIIa extracellular domain with H131, histag (Biorbyt, batch ORB138408) (human, UniProt P12318 34-217); experiment: AlphaScreen competition, against mAb 1
# T3 construct: Bought protein; also called FcγRIIa H131; not shown: histag
# T3 sequence: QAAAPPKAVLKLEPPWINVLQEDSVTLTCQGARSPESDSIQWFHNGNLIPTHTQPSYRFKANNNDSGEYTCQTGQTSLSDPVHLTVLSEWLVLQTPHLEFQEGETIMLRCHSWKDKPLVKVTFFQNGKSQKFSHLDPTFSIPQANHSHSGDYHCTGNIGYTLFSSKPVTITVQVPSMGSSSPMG
# [7] = biological target: T2, FcγRIIIa 158V expressed on cells; experiment: flow cytometry on HEK293T cells expressing the receptor
# [8] = biological target: T4, FcγRIIa 131H expressed on HEK cells (human, UniProt P12318 34-317); experiment: as above
# T4 sequence: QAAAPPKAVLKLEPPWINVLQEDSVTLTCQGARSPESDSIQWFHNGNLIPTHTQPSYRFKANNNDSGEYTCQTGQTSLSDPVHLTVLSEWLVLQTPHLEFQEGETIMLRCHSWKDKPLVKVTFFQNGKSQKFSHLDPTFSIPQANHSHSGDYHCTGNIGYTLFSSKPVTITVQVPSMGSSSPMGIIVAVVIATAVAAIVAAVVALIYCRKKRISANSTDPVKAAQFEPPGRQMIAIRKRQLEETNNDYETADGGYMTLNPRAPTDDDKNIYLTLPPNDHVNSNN
# [9] = biological target: T5, FcγRI expressed on HEK cells (UniProt P12314 16-374, limits assumed); experiment: as above
# T5 construct: whole, on cells; also called HEK293T-FcγRI
# T5 sequence (P12314 16-374 limits assumed): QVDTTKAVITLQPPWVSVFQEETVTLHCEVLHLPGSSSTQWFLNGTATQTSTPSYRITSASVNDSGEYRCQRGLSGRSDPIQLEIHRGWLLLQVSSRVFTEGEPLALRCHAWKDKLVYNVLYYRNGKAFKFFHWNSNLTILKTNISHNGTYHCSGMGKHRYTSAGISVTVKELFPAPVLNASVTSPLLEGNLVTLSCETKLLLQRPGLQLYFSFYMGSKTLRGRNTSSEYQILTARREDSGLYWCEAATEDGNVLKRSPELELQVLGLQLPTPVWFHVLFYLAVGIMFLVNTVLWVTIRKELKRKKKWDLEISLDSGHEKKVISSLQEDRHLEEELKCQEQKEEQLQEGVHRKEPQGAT
# [10] = biological target: T4, FcγRIIa 131H expressed on HEK cells; experiment: flow cytometry on HEK293T cells expressing the receptor, FITC anti-human IgG; mean Kd
# [11] = biological target: T5, FcγRI expressed on HEK cells; experiment: as above
# [12] = biological target: T6, FcγRIIb expressed on HEK cells (UniProt P31994 43-310, limits assumed); experiment: as above
# T6 construct: whole, on cells; also called HEK293T-FcγRIIb
# T6 sequence (looked up): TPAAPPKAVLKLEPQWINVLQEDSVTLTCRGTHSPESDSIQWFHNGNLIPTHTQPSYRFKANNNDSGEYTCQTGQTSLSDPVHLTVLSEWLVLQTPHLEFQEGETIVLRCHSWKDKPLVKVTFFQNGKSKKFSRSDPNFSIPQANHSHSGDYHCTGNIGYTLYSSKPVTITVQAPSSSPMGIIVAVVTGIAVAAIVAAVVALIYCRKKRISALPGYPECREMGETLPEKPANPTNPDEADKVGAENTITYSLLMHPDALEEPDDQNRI
# [13] = biological target: T1, FcγRIIIa (CD16a) extracellular domain …; experiment: SPR (BIAcore 2000), FcγRIIIa-histag captured on anti-His IgG, mAb 8-256 nM, two-state fit
# [14] = biological target: T2, FcγRIIIa 158V expressed on cells; experiment: flow cytometry on HEK293T cells expressing the receptor, FITC anti-human IgG; mean apparent Kd
# [15] = biological target: T6, FcγRIIb expressed on HEK cells; experiment: flow cytometry on HEK293T cells expressing the receptor; the text calls it fold lower affinity
# [16] = biological target: T3, FcγRIIa extracellular domain with H131, …; experiment: AlphaScreen competition (relative IC50): untagged mAb displaces biotinylated anti-CD38 native IgG1 from FcγRIIa-histag
binder,measurement,setting,value
B1,fold higher affinity than mAb 1,[1],9 fold
same,Kd,[2],75 nM
same,"ADCC of MOLP-8 cells, EC50 (calcein release)",[3],0.14 ng/mL
same,"ADCC of RPMI-8226 cells, EC50 (calcein release)",[4],0.09 ng/mL
same,"ADCC of KMS-12BM cells, EC50 (calcein release)",[5],0.6 ng/mL
same,fold higher affinity compared to mAb 1,[6],> 18 fold
same,Fold difference in affinity versus mAb 1,[7],5.2 fold
same,difference in affinity versus mAb 1,[8],5.3 fold
same,difference in affinity versus mAb 1,[9],1.6 fold
same,Kd,[10],222 nM
same,Kd,[11],14.7 nM
same,Kd,[12],222 nM
same,Kd,[13],50 nM
same,Kd,[14],32 nM
same,difference in affinity versus mAb 1,[15],3.3 fold
same,IC50,[16],15 nM
